Test results taken from US20120207760A1 (THERACLONE SCIENCES, published 2012).

B1: TCN-552 (5249_I23) (antibody, V domains shown)
VH: QVQVVQSGAEVKKPGSSVRVSCQASGGTFMNYAIIWVRRAPGQGLEWMGGIIPVFPTPNYAQMFQGRVTISTDESRSTSFLELTNLRYEDTAVYYCARRIYHGGNSGFDFWGQGTLVTVSS
VL: EIVLTQSPATLSLSPGERATLSCRASQSVGNYLAWYQQKPGQAPRLLIYDSSNRAPGIPARFSGSGSGTDFTLTISSLAPEDFAVYYCQQRSKWPPMYSFGHGTKLEIK
B2: TCN-556 (5089_K12) (antibody, V domains shown)
VH: QVQLVQSGAEVKKPGASVKVSCKASGYTFIGYDMHWVRQAPGQGLEWMGWINAKRGGTNYAQKFQGRVTMTRDTSISTAYMELNSLRSDDTAVYYCARGVGSRTTIFGVLNPEFDYWGQGTLVTVSS
VL: QSALTQPPSASGSPGQSVTISCTGSSSDVGGYDYVSWYQQHPGKAPKLLIYEVTKRPSGVPDRFSGSKSGNTASLTVSGLQAEDEADYYCSSYAGNYNHVFGPGTKVTVL
B3: TCN-555 (5246_L16) (antibody, V domains shown)
VH: QVQLVQSGAEVKRPGSSVKVSCTASGGIFRKNAISWVRQAPGQGLEWMGGIIAVFNTANYAQKFQNRVKITADESGNTAYMELSSLTSDDTAVYYCASHPKYFYGSGSYPDFWGQGTLVTVSS
VL: QSALTQPRSVSGSPGQSITISCTGGSSDIGASNSVSWYQQHPGKAPKLVIFDVTERPSGVPHRFSGSKSGNTASLTVSGLQPDDEADYFCCAYGGKYLVVFGGGTKVTVL
B4: TCN-549 (5092_P04) (antibody, V domains shown)
VH: QVQLVQSGAEVKKPGASVKVSCKASGYTFTGYYMHWVRQAPGQGLEWMGWINPNSGDTNYAQKFQGRVTMTRDTSITTAYMELSSLRSDDTAVYYCARDSPYSSSWSFFDYWGQGPLVTVSS
VL: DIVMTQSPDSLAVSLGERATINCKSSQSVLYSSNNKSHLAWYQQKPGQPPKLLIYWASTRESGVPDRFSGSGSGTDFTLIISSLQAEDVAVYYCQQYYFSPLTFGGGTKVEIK
B5: TCN-557 (5081_A04) (antibody, V domains shown)
VH: QVQLVQSGAEVKKPGASVKVSCKASGHTFTGYYIHWVRQAPGQGLEWMGWINPDSGATSSAQNFQGRVTMTGDTSSSTAYMELSRLSFDDTAVYYCARVLFTSPFDFWGEGTLVTVSS
VL: QAVVTQEPSLAVSPGGTVTLTCGSSTGAVTRGHYPYWFQQKPGQAPRALIYDSAGNRHSWTPARFSGSLLGGKAALTLSGAQPEDEAEYYCLLSYSGVWVFGGGTKLTVL
B6: TCN-560 (5084_P10) (antibody, V domains shown)
VH: EVQLVESGGGLVQPGGSLRLSCAASGFIFRNYWMSWVRQAPGKGLEWVANIKQDGREKYYVDSLRGRVNISRDNAENSLYLHMNSLRVEDTAVYFCARARMVVVTGDGFDVWGHGTMVTVSS
VL: DIQMTQSPSSLSASVGDRVTITCRASQNIKRYFNWYQQKPGKAPKLLIYAASNLENGVPSRFSGSGSGTDFTLTISSLQPEDFATYYCQQSFSKSWTFGQGTNVDIK
B7: TCN-553 (5261_C18) (antibody, V domains shown)
VH: QVQVVQSGTEVKKPGSSVKVSCQTSGGRFMSYAITWVRQAPGQGLEWMGGIVPVFGTANYAQKFQGRVTITTDDSTRTAYMELSSLRSEDTAVYYCGFRYGSGYGFDSWGQGTLVTVSS
VL: EIVLTQSPGTLSLSPGERATLSCRASQSVSSSYLAWYQKKPGQAPRLLIYGASTRATGIPDRFTGSGSGTDFTLSISRLEPEDFAVYYCQHFGTSVFTFGGGTKVEIK
B8: TCN-550 (5096_F06) (antibody, V domains shown)
VH: QVQLQESGPGLVKPSETLSLTCTVSGASINSHYWSWIRQPPGKGLEWIGYVYYSGSTTYNPSLKSRVTLSVDTSKNQFSLNLSSVTAADTAFYYCARHPYDVLTGSGDWFDPWGQGTLVTVSS
VL: SYVLTQAPSVSVAPGQTARITCGGNAIGSKKVHWYQHKAGQAPVLVVYDDTDRPSGIPERFSGSNSWSTATLTINRVEAGDEADYYCQVWDFTIDHVVFGGGTKLTVL
B9: TCN-032 Fab fragment (Fab, V domains shown)
VH: QVQLQESGPGLVKPSETLSLTCTVSGSSISNYYWSWIRQSPGKGLEWIGFIYYGGNTKYNPSLKSRVTISQDTSKSQVSLTMSSVTAAESAVYFCARASCSGGYCILDYWGQGTLVTVS
VL: DIQMTQSPSSLSASVGDRVTITCRASQNIYKYLNWYQQRPGKAPKGLISAASGLQSGVPSRFSGSGSGTDFTLTITSLQPEDFATYYCQQSYSPPLTFGGGTRVEIK
B10: TCN-031 Fab fragment (Fab, V domains shown)
VH: EVQLVESGGGLVQPGGSLRISCAASGFTVSSNYMSWVRQAPGKGLEWVSVIYSGGSTYYADSVKGRFSFSRDNSKNTVFLQMNSLRAEDTAVYYCARCLSRMRGYGLDVWGQGTTVTVS
VL: DIQMTQSPSSLSASVGDRVTITCRTSQSISSYLNWYQQKPGKAPKLLIYAASSLQSGVPSRFSGSGSGTDFTLTISGLQPEDFATYYCQQSYSMPAFGQGTKLEIK

Molecular target: Hemagglutinin of influenza A/Japan/305/57 (H2N2), on inactivated whole virions (Influenza A virus A/Japan/305/1957 …, UniProt P03451 16-562)
Experiment: ELISA, B cell culture supernatant on inactivated whole virions

First: B1
Second: B2
The OD450 of the first is lower: 0.71 OD450 for the first, 2.41 OD450 for the second.

First: B3
Second: B4
The OD450 of the first is higher: 0.6 OD450 for the first, 0.08 OD450 for the second.

Going from B5 to B6, the OD450 falls from 2.7 OD450 to 2.07 OD450.

Compared with B7, B8 is lower in OD450: 2.54 OD450 for the first, 0.06 OD450 for the second.

Molecular target: M2 protein of influenza A/Puerto Rico/8/34 (H1N1), on inactivated virus (Influenza A virus A/Puerto Rico/8/34 …, UniProt P06821 1-97)
Sequence (P06821 whole entry, the tested form may be a part): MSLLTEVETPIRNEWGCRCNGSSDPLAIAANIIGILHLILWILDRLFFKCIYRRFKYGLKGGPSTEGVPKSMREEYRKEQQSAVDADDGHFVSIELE
Experiment: surface plasmon resonance, Fab fragment on influenza virus

First: B9
Second: B10
The Kd of the first is 4.4-fold lower: 3.2 nM for the first, 14 nM for the second. The first binds more tightly here.

Compared with B9, B10 is 6.1-fold higher in koff: 0.0023 s⁻¹ for the first, 0.014 s⁻¹ for the second.

B9 and B10 are within 1.5-fold of each other in kon: 740000 M⁻¹ s⁻¹ for the first, 1e+06 M⁻¹ s⁻¹ for the second.
